{
  "source": "the domain aggregation screens of Martell et al. (2025)",
  "data": [
    {"assay": "soluble fraction after stress (log2 fold change); higher = more stays soluble; pooled small domains, quantitative proteomics", "details": "stress: 50 degC", "method_in_brief": "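Pooled custom libraries of small protein domains were measured in a high-throughput format, with quantitative proteomics as the read-out. Each library was stressed at 50°C. Aggregation propensity is given as the base-two logarithm of the fold change in how much of each protein stays soluble after the stress. Higher values mean a larger share of the protein remains in solution.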", "values": [
      {"sequence": "HMTDYVPTIGTKISKDFGSKGYFEGEVVSGPHNVTVEGDNMVVWKVQYEDGDREEMTASEIAHWKA", "soluble fraction (log2)": -0.105},
      {"sequence": "HMTSLTDDELSVVMLVREREISFDEITSETGFDAARLNSVLTMLKIKGIIDETTGKHYRISGGA", "soluble fraction (log2)": 0.146},
      {"sequence": "HMPASGISSEIIYDGILIEENLRQLKKDKAWLMDQLKKKGISSVSEVFLATLNKGGSLYIDKY", "soluble fraction (log2)": -0.0117},
      {"sequence": "HMISDAEWKIMNVLWEEQPRTMMQITKELQEETGWTKHTVMTYLKRMESKKIIHYVEGEKAKLYYS", "soluble fraction (log2)": -0.0967},
      {"sequence": "HMNLSDIETWLRELSLEKYALAFSEAEIDFETLPELTEDDLKEVGLPVGPRRKVWGAIQLLRTTD", "soluble fraction (log2)": -1.42},
      {"sequence": "HMGTSGLTIPRFVSLASGTVHMRAGPGVRYPITWIYKRLGTPLMVMAEHEFWRKVRDAEGTEGWMHRSLLS", "soluble fraction (log2)": -0.0684},
      {"sequence": "HMKGALQIAIEEGFNWNLDKKYWNIVQSTVIAKRLGLKTTSGLKEAIEGMGGEYKRTKKARGYLVPTFKD", "soluble fraction (log2)": -2.31},
      {"sequence": "HMSKLIDQELINFFKNQIESKSFRYGVSIEDSYEEIKSNQIKFYGEQEDKLKAIDNAFIELKRERAGIR", "soluble fraction (log2)": -0.00405},
      {"sequence": "HMADTSPEGVQKLIKAFEQFGVSKDDIEGFIQRRVDAITPANVVSLRKIFTSLRDGMSSAKDWFKGA", "soluble fraction (log2)": 0.00107},
      {"sequence": "HMKELFETLPDVLDAKLLASALSISKAGAYQLLNRPDFPTLQVGGWKLVTKQKLALWMEQHTN", "soluble fraction (log2)": -3.21},
      {"sequence": "HMGTTIAMSKLKQVLRWKEEGYSNRKIAQLVGLNKETVNNYISRANADSLSQKELLQLDDFVLDIRLRG", "soluble fraction (log2)": -1.32},
      {"sequence": "HMSSFFLIDVSQVRIGMYIQLDVGWMRHPFPVNSFRITNQEQLDTLRSLNLAQVRWSPAKSDL", "soluble fraction (log2)": -3.77},
      {"sequence": "HMLKVHPRDQEENRLLLLKGERLYEESTGDTRVMIDMWLRKFEEALNSRSRENIEDARRELKEQLAELDN", "soluble fraction (log2)": -0.00144},
      {"sequence": "HMLQMSDSSALEAILDEVLGSEMGQKALSDIEAGNMKAMGFIIGQSMKLSKGQANPQIINKLLQQRLK", "soluble fraction (log2)": -0.000287},
      {"sequence": "HMAMYSREKLKKLREDRGLTQYELAKIAGISVVTLNKIESSDSAKPFVKTLNKIAQALGVGIDELS", "soluble fraction (log2)": -0.127},
      {"sequence": "HMFDEDKLIISIGSKVRIIREPYFGTIGKVVELPPELVKMDTEAMLRVAIIKLDDGEKVTIPRANLEVILS", "soluble fraction (log2)": -1.22},
      {"sequence": "HMSTPAKVTPTNPIVKQLFNAAETQIKNKDIQNAIASYEKADTLTTDEKVKQYIHYQLSTLKDDN", "soluble fraction (log2)": -0.14},
      {"sequence": "HMSMVGNIEKILVTGESKKSSELLAGRTENNRVVNFTGEKVLIGSMVNVRIEEVFPNSLGGSYLPS", "soluble fraction (log2)": -0.16},
      {"sequence": "HMEFEKYKYHYIFDDVLGLRIVWDRGKEHFSYFVNEELAEKSRKSDKDALEVMFYLEHKRWPEEGELENY", "soluble fraction (log2)": -0.687},
      {"sequence": "HMAVVQMVDRPGGLDELLKDVVRAGVNFANAYGRTASDGNSAFFVIDIQDIPGARQKLADVGLQILADEAV", "soluble fraction (log2)": -0.192},
      {"sequence": "HMNSKKETLLSYLYNHSTWSSRNDLSNFLNVSTRQVTNYINEINKNETIVLSSNKGYKINPKFIGKN", "soluble fraction (log2)": -0.611},
      {"sequence": "HMRHDSEGYYRLIGVPPDADDAELKEAAKKRLMEAHPDHGGSEDEFVEVYRAYRTLTDPSARAEYDARP", "soluble fraction (log2)": 0.307},
      {"sequence": "HMKKYEFIEDLPGVGPATAQKLRDLGYHTVESLAMATARELEPIGVGEKKAFSMIEAARSAIGFS", "soluble fraction (log2)": 0.283},
      {"sequence": "HMIMLDRILKIMDYNKFTPSEFADVLEIDRSRLSHILNGRNKPSLEIVMKILEKFPEISSDWLLFGSGNML", "soluble fraction (log2)": -1.49},
      {"sequence": "HMAAADLNMRAKLADLGGMSYGELSIWEKTHGMEFAAWEHEWEKLNSGTQADGLKFPKHLPEGFPT", "soluble fraction (log2)": 0.0468},
      {"sequence": "HMRSLAVGNVVSEEGKPSYLLLDSKRTMLFSENSIPSLYLEDGRRVIVNYTLLDEDYQGYDFRIHVNDIDT", "soluble fraction (log2)": -0.113},
      {"sequence": "HMNTIIIDILPKGLSIAGNQTEPKSLIQQLLMARRADPAQPILLRPAIAVPVQNVVELIDRLTAAGI", "soluble fraction (log2)": -0.221},
      {"sequence": "HMGSEYILTIIPTPADATVFINGVKKNSASGVNGQILSWEVTKEGYIPQSGTFTINGKNETIEVVLQPQT", "soluble fraction (log2)": 0.00105},
      {"sequence": "HMSPIPLPVERAIHKLGSDISLARRRRHISQASLAERMGASLSTVRRMEKGDVRVPIHFFARALHVFG", "soluble fraction (log2)": -0.00115},
      {"sequence": "HMTSRIHDYWTSPGQPGYAKIGWGTAGDFRRAKALIGEKIAANSPEDMRYLNQIIAQWHFDALGYWPGDH", "soluble fraction (log2)": -2.49}
    ]}
  ]
}
